Laboratory results reported in patent US20190194358A1 (ARIZONA BOARD OF REGENTS A BODY CORPORATE OF THE STATE OF …, published 2019).
Ends that are not written are not given here.

Tests used:
[1] = target: T1, transferrin (human, UniProt P02787 20-698); assay: SPR
T1 construct: also called TRF; pooled human transferrin (Sigma)

[2] = target: T2, AKT1 (human, UniProt P31749 1-480, limits assumed); assay: SPR
T2 construct: GST fusion on the Protoarray; also called AKT1_HUMAN; human AKT1

[3] = target: T3, NADK (human, UniProt O95544); assay: Invitrogen ProtoArray Human Protein Microarray v4.0; biotinylated synbody, fluorescently labelled streptavidin; fluorescence intensity above background
T3 construct: GST fusion on the array
T3 sequence (looked up): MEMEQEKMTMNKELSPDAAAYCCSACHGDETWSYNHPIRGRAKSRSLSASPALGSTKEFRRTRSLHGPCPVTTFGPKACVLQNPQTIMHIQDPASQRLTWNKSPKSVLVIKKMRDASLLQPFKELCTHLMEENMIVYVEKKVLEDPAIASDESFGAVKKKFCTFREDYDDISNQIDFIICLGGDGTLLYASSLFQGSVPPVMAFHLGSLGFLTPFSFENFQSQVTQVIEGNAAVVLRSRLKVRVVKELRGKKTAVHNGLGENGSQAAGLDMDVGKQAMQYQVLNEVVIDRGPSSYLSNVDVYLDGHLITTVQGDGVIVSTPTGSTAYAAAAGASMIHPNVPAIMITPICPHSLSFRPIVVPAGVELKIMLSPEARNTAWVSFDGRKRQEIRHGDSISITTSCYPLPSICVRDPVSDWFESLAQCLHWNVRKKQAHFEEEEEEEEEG

[4] = target: T4, PTK2 (human, UniProt Q05397); assay: as above
T4 construct: GST fusion on the array
T4 sequence (Q05397 whole entry, the tested form may be a part): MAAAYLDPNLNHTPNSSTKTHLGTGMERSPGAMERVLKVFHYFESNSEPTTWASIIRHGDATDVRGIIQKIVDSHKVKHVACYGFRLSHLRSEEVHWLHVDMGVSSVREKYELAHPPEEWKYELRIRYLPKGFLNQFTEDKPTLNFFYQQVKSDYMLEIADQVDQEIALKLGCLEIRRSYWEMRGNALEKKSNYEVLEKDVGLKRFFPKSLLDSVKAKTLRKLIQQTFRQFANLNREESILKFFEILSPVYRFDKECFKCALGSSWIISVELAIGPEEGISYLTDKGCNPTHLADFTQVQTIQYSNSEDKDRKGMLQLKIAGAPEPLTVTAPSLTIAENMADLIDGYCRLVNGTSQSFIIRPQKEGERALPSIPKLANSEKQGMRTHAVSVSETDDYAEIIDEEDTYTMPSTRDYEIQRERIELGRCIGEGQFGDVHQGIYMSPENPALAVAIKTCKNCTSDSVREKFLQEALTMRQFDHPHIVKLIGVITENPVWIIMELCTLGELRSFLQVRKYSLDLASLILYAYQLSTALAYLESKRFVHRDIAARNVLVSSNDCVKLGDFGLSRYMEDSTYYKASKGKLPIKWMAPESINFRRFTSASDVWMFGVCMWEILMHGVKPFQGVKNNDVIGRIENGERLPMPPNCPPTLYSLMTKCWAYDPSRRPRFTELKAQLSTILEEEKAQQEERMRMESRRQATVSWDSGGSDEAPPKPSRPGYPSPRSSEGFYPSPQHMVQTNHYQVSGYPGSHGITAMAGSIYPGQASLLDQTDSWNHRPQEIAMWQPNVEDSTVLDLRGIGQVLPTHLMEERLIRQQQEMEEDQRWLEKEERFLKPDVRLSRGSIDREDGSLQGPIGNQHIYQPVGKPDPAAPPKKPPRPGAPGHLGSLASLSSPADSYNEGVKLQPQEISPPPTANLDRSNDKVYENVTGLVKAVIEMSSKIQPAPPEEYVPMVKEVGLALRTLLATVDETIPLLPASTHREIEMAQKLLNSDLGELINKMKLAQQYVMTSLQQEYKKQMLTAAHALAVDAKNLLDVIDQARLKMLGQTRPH

[5] = target: T5, ROCK2 (human, UniProt O75116); assay: as above
T5 construct: GST fusion on the array
T5 sequence (O75116 1-552 limits assumed): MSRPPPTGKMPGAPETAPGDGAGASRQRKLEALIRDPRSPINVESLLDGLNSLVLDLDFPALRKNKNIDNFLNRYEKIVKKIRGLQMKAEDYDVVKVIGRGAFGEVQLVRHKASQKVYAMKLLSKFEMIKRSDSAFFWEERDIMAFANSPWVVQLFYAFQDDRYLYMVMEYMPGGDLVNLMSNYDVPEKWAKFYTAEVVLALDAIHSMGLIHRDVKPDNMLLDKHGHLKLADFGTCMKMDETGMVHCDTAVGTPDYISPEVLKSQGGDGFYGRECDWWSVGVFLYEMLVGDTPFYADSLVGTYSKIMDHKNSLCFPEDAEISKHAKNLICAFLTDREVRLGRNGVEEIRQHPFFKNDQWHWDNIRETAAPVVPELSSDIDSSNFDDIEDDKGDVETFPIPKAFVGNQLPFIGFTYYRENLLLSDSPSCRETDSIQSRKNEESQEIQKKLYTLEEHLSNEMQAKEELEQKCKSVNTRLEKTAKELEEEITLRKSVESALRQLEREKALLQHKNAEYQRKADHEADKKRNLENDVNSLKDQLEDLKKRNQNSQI

[6] = target: T6, LACRT (human, UniProt Q9GZZ8); assay: as above
T6 construct: GST fusion on the array
T6 sequence (looked up): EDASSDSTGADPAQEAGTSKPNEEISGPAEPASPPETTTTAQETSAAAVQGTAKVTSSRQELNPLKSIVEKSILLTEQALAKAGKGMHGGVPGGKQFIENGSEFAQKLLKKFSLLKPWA

[7] = target: T7, PRKAA1 (human, UniProt Q13131); assay: as above
T7 construct: GST fusion on the array
T7 sequence (Q13131 whole entry, the tested form may be a part): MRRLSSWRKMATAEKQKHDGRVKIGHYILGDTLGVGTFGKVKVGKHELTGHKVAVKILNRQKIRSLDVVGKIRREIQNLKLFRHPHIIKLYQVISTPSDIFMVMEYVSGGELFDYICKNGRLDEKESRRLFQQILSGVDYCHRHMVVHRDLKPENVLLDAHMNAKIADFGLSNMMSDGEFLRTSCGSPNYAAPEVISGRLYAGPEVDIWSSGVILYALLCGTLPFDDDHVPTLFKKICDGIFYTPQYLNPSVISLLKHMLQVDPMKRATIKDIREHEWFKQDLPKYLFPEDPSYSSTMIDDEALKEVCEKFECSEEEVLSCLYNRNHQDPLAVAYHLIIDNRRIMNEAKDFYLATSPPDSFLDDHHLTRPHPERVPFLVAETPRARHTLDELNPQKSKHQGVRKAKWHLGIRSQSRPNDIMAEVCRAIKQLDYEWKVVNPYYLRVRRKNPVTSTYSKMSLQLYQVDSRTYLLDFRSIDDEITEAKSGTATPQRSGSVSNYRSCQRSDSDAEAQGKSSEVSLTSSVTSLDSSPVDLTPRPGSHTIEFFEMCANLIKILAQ

[8] = target: T8, ABHD14B (human, UniProt Q96IU4); assay: as above
T8 construct: GST fusion on the array
T8 sequence (looked up): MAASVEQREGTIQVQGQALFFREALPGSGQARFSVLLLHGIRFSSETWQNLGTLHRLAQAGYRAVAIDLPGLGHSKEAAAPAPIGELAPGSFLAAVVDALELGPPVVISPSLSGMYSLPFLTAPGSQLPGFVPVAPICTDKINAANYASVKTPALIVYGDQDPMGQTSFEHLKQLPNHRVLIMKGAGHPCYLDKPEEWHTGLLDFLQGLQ

T2 sequence (P31749 whole entry, the tested form may be a part): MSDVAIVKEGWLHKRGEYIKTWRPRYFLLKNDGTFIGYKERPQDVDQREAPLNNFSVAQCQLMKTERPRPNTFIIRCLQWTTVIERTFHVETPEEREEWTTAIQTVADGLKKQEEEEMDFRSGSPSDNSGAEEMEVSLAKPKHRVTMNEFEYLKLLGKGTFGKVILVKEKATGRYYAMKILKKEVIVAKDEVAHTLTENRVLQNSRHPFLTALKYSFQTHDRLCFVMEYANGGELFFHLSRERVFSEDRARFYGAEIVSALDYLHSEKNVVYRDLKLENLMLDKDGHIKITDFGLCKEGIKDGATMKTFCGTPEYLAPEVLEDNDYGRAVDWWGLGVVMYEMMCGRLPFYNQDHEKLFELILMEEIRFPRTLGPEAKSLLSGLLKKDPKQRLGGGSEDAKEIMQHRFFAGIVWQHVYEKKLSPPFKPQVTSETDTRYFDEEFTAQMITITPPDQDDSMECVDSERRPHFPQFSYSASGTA
T1 sequence (P02787 20-698 limits assumed): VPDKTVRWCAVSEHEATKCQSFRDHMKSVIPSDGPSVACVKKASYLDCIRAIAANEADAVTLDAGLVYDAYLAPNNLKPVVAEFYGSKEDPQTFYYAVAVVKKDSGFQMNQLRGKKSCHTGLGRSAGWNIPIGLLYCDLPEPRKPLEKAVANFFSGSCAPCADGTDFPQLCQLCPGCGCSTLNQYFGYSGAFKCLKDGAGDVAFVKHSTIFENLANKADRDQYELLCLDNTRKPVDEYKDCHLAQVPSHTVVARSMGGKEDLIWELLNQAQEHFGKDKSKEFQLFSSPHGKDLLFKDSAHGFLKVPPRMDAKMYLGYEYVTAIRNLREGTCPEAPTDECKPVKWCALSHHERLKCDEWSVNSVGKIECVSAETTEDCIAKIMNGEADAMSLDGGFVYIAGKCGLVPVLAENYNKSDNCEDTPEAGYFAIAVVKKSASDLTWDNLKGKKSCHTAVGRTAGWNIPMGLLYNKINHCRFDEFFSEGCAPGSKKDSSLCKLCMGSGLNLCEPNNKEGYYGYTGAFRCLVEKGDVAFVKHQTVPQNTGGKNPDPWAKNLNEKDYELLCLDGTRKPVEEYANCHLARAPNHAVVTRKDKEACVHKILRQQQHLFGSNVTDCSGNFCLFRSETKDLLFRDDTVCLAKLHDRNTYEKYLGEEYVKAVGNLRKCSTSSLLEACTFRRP

B1: SYN23-26 (designed binder)
peptide 1: AHKVVPQRQIRHAYNRYGSG
peptide 2: FRGWAHIFFGPHVIYRGGSG
modifications: also: two chains joined by their C-termini to a branching Lys (epsilon/alpha N), Lys linker followed by Cys, Cys thiol biotinylated
notes: Lysine linker followed by cysteine; the thiol of the cysteine biotinylated for the protein array; also called anti-TRF synbody
For B1, the Kd [1] was ~141 nM, the Kd [2] was ~1 nM and the binding result [3] was “no binding”. B1: no binding [4]; no binding [5]; no binding [6]. B1: no binding [7]; no binding [8].
